41 sequences from the nanobody polyreactivity screen of Harvey et al. (2022) can be followed below.

A short description of the data set: yeast display, Sf9 membrane polyspecificity reagent, FACS + sequencing; frameworks hold sequencing errors. Put shortly: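 Genes from sorted yeast were amplified by colony PCR, read by MiSeq 2 × 250 sequencing and filtered on CDR length. These cells carried a synthetic nanobody library in Saccharomyces cerevisiae BJ5465 and were sorted by FACS into low and high (top ~1%) gates on anti-HA and streptavidin fluorescence. Polyreactivity is labelled according to the gate of origin.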
For “QVQLVESGGGLVQAGGSLRLSCAASGSTSQTYTMGWYRQAPGKERELVAAISLRGGRTYYADSVKGRFTISRDNAKNTVYLQMNSLKPEDTAVYYCNRDYRGPYYYWGQGTQVTVSS”, the “polyreactivity (PSR sort gate)” value is reported as “high polyreactivity”.

“QVQLVESGGGLVQAGGSLRLSCAASGSTSSPNAMGRYRQAPGKEREFVAAISRSGGSTYYADSVKGRFTISRDNAKNTVYLQMNSLKPEETSVHYCAATVTVFYTRYYYWGQGTQVTVSS”: the “polyreactivity (PSR sort gate)” value is recorded as “high polyreactivity”.

With “QVQLVESGGGLVQAGGSLRLSCAASGSTSSPYAMGWYRQAPGKERELVAAITSGGSTNYADSVKGRFTISRDNAKNTVYLEMNSLKPEDTAVYYCATRIYGWSFGSWYKYDYRGQGTQVTVSS”, the “polyreactivity (PSR sort gate)” value is reported as “low polyreactivity”.

In the case of “QVQLVESGGGLVQAGGSLRLSCAASGSTSSVYTMGWYRPAPGKERELVASISIRGTRTYADSVKGRFTISRDNAKNTVYLQMNSLKPEDTAVYYCAARYPWYVYTIYGYWGQGTQVTVSS”, the “polyreactivity (PSR sort gate)” value is “high polyreactivity”.

Regarding “QVQLVESGGGLVQAGGSLRLSCAASGSTSSYYAMGWYRQAPGKERELVAAIRTSGRTYYADSVKGRFTISRDNAKNTVYLQMNSLKPEDTAVYYCNAVYVSPDYDSWGQGTQVTVSS”, the “polyreactivity (PSR sort gate)” value is on record as “high polyreactivity”.

Regarding “QVQLVESGGGLVQAGGSLRLSCAASGSTSTDYAMGWYRQAPGKERELVAAISYGGGSTYYADSVKGRFTISRDNAKNTVYLQMNSLKPEDTAVYYCAAVARFPKYRYYSWGQGTQVTVSS”, the “polyreactivity (PSR sort gate)” value was “high polyreactivity”.

As to “QVQLVESGGGLVQAGGSLRLSCAASGSTSTQYAMGWYRQAPGKERELVAGITQSGGSTYYADSVKGRFTISRDNAKNTVYLQMNSLKPEDTAVYYCAAPPGYTGRYDYYYWGQGTQVTVSS”, the “polyreactivity (PSR sort gate)” value is recorded as “high polyreactivity”.

With “QVQLVESGGGLVQAGGSLRLSCAASGSTSTYNAMGWYRQAPGKERELVAAITESGGSTYYADSVKGRFTISRDNAKNTVYLQMNSLKPEDTAVYYCAADLTYTYEFWGQGTQVTVSS”, the “polyreactivity (PSR sort gate)” value is recorded as “low polyreactivity”.

For “QVQLVESGGGLVQAGGSLRLSCAASGSTSVDYTMGWSRQAPGKERELVAAIDYNGDSTYYADSVKGRFTISRDNAKITVYLQMNRLKPEDTAVYYCADDVWTLDPDEYDYWGQGTQVTVSS”, the “polyreactivity (PSR sort gate)” value is “low polyreactivity”.

For “QVQLVESGGGLVQAGGSLRLSCAASGSTSWLNAMGWYRQATGKERELVAAISVNTGSTYYADSVKGRFTISRDNAKNTVYLQMNSLKPEDTAVYYCAARGRGHGTTPNDYWGQGTQVTVSS”, the “polyreactivity (PSR sort gate)” value is “high polyreactivity”.

For “QVQLVESGGGLVQAGGSLRLSCAASGSTSYNAMGWYRQAPGKERELVAAISDGGGSTYYADSVKGRFTISRDNAKNTVYLQMNSLKPEDTAVYYCAADTITGDGYWAQGTQVTVSS”, the “polyreactivity (PSR sort gate)” value was “low polyreactivity”.

As to “QVQLVESGGGLVQAGGSLRLSCAASGSTSYRYAMGWYRQAPGKERELVAAISSSGGSTYYADSVKGRFTISRDNAKNTVYLQMNSLKPEDTAVYYCAARFYSGPGGYTMYYWGQGTQVTVSS”, the “polyreactivity (PSR sort gate)” value is “high polyreactivity”.

In the case of “QVQLVESGGGLVQAGGSLRLSCAASGSTSYTNAMGWYRQAPGKERELVARITNDGSTTYADSVKGRFTISRDNAKNTVYLQMNSLKPEDTAVYYCARPYRFWRYYGMYYWGQGTQVTVSS”, the “polyreactivity (PSR sort gate)” value was “high polyreactivity”.

With “QVQLVESGGGLVQAGGSLRLSCAASGSTSYWYAMGWYRQAPGKERELVAAISSDDSTHYADSVKGRFTISRDNAKNTVYLQMNSLKPEDTAVYYFNREHYLIRYDYWGQGTQVTVSS”, the “polyreactivity (PSR sort gate)” value is “low polyreactivity”.

As to “QVQLVESGGGLVQAGGSLRLSCAASGSTSYYYTMGWYRQAPGKERELVASISSSGTSTYYADSVKGRFTISRDNPKNTVYLQMNSLKPEDTAVYYCAATADNNTPSGYDYWGQGTQVTVSS”, the “polyreactivity (PSR sort gate)” value is “high polyreactivity”.

As for “QVQLVESGGGLVQAGGSLRLSCAASGSTVGHYAMGWYRQAPGKERELVAAISVSGGSTYYADSVKGRFTISRDTAKNTVYLQMNSLKPEDTAVYYCAREYAHLSFLSTSSDYWGQGTQVTVSS”, the “polyreactivity (PSR sort gate)” value is listed as “low polyreactivity”.

“QVQLVESGGGLVQAGGSLRLSCAASGSTVHYMGWYRQAHGKESELVAGISWSGGSTYYADSVKGRFTISRDNAKKTVYLQINSLKPEDTAVYYCAADIKIRLYTTGDYWGQGTQVTVSS”: the “polyreactivity (PSR sort gate)” value is listed as “low polyreactivity”.

Consider “QVQLVESGGGLVQAGGSLRLSCAASGSTVHYMGWYRQAPGKERELVAGISWSGGSTYYADSVKGRFTISRDNAKNTVYLQMNSLKPEDTAVYYCAADIKIRLYTTGDYWGQGSQVTVSS”, for which the “polyreactivity (PSR sort gate)” value was “low polyreactivity”.

Take “QVQLVESGGGLVQAGGSLRLSCAASGSTVWFYAMGWYRQAPGKERELVAVISNSGSTYYADSVKGRFTISRDNAKNTVYLQMNSLKPEDTAVYYCNKDGGGDSYWYDYWGQGTQVTVSS”: the “polyreactivity (PSR sort gate)” value is reported as “low polyreactivity”.

Regarding “QVQLVESGGGLVQAGGSLRLSCAASGSTYAFYAMGWYRQAPGKERELVAAITSGGSTKYADSVKGRFTISRDNAKNTVYLQMNSLKPEDTAFYYCAARSRWSKLFRYDYWGQGTQVTVSS”, the “polyreactivity (PSR sort gate)” value is “high polyreactivity”.

For the sequence “QVQLVESGGGLVQAGGSLRLSCAASGSTYATYAMGWYRQAPGKERELVAVITRGGRTYYADSVKGRFTISRDNAKNTVYLQMNSLKPEDTAVYYCAARTLWYVIFTLHDYNYWGQGTQVTVSS”, the “polyreactivity (PSR sort gate)” value is “high polyreactivity”.

In the case of “QVQLVESGGGLVQAGGSLRLSCAASGSTYDYNAMGWYIQAPGKERELDAAINSGASTYYGDSVKGRFTISRDNEKNSVYLQMNSMKPEDTAVYYCAKDYPYIGDYWGQCTQVTVSS”, the “polyreactivity (PSR sort gate)” value is “low polyreactivity”.

In the case of “QVQLVESGGGLVQAGGSLRLSCAASGSTYGGYTMGWYRPAPGKVWELVAAIRLSGVSTYYADSVKGRFTISRDNAKNTVYLQMNSLKPEDTAVYYCAARGWYRYGSVYYIGDYWGQGTQVTVSS”, the “polyreactivity (PSR sort gate)” value is recorded as “high polyreactivity”.

As to “QVQLVESGGGLVQAGGSLRLSCAASGSTYISYAMGWYRQAPGKERELVAAITVSGGRTYYADSVKGRFTISRDNAKNTVYLQMNSLKPEDTAVYYCARGYARSRRWRFDYWGQGTQVTVSS”, the “polyreactivity (PSR sort gate)” value is “high polyreactivity”.

Turning to “QVQLVESGGGLVQAGGSLRLSCAASGSTYKFYAMGWYRQATGKERELVAAISGSSGSTYYADSVKGRFTISRDNAKNTVYLQMNSLKPEDTAVYYWNTQYSRYYTRYSAYDYWGQGTQVTVSS”, the “polyreactivity (PSR sort gate)” value is “low polyreactivity”.

Turning to “QVQLVESGGGLVQAGGSLRLSCAASGSTYKGYAMGWYRQAPGKERELVAAISSSGGGTYYADSVKGRFTISRDNAKNTVYLQMNSLKPEDTAVYYCAATYYRGNYRTHYDYWGQGTQVTVSS”, the “polyreactivity (PSR sort gate)” value is reported as “high polyreactivity”.

Regarding “QVQLVESGGGLVQAGGSLRLSCAASGSTYLYAIRWYRQAPGKERELVAAISWSGGSTYYADSVKGRFTISRDNAKNTVYLQMNSLKPEDTAVYYCNAYTYPFDWGQGTQVTVSS”, the “polyreactivity (PSR sort gate)” value was “high polyreactivity”.

Consider “QVQLVESGGGLVQAGGSLRLSCAASGSTYRDYAKGWYRQAPGKERELVASITSGSSTYYADSLKGRFTMSRDNAKNTVYLQMNSLKPEDTAVYYCATGRQYDLHRLRHDYWGQGTQVTVSS”, for which the “polyreactivity (PSR sort gate)” value is recorded as “low polyreactivity”.

Regarding “QVQLVESGGGLVQAGGSLRLSCAASGSTYRGYAMGWYRQAPGKEMELVAAISNRGTRTYYADSVKGRFTISRYNAKNTFYLQMNSLKPEDTAVYYFSAGNRVHRFDYWGQGTQVTVSS”, the “polyreactivity (PSR sort gate)” value is listed as “high polyreactivity”.

Regarding “QVQLVESGGGLVQAGGSLRLSCAASGSTYRLYAMGWYRQAPGKERELVAAITWRGTTYYADSVKGRFTISRDNAKNTVYLQMNSLKPEDTAVYYCAARAPVAGYKYRYDYWGQGTQVTVSS”, the “polyreactivity (PSR sort gate)” value was “high polyreactivity”.

As for “QVQLVESGGGLVQAGGSLRLSCAASGSTYRVKAMGWYRQAPGKEREFVAAITRGGSTNYADSVKGRFTISRDNAMNTVYLQMNSLKPEDTAVYYCATAYRGRAWGYVYWGQGTQVTVSS”, the “polyreactivity (PSR sort gate)” value is “high polyreactivity”.

“QVQLVESGGGLVQAGGSLRLSCAASGSTYRYYDMGWYRQAPGKERELVAAITWSGGTTYYADSVKGRFTISRDNAKNTVYLQMNSLKPEDTAVYYCAADSVLTPYDYWGQGTQVTVSS”: the “polyreactivity (PSR sort gate)” value is recorded as “low polyreactivity”.

In the case of “QVQLVESGGGLVQAGGSLRLSCAASGSTYYKYAMGTDRPAPGKERELVASSSRSGGSTSYADSVKGRFTISRDNAKNTVYLQMNSVKPEDTAVYYCAATWRQHPGSMGYWGQGTQVTVSS”, the “polyreactivity (PSR sort gate)” value was “high polyreactivity”.

As to “QVQLVESGGGLVQAGGSLRLSCAASGSTYYPYAMGWSRQAPGKEWQFVAAITWSGGSTYADSVKGRFTISRDNAKNTVNLQMNSLKPEDTAGYYCAAQPFVIDGGYRGDYWGQGTQETVSS”, the “polyreactivity (PSR sort gate)” value is “low polyreactivity”.

On to “QVQLVESGGGLVQAGGSLRLSCAASGSTYYWYMGWYRQAPGKERELVAAITSGGRTYYADSVKGRFTISRDNAKNTVYLQMNSLKPEDTAVYYCARPYSRAYDYWGQGTQVTVSS”, for which the “polyreactivity (PSR sort gate)” value is listed as “high polyreactivity”.

In the case of “QVQLVESGGGLVQAGGSLRLSCAASGSTYYYNAMGSYRQAPGKDRELVARISRSGGSTYADSVKGRFTISRDNAKNTVYLQMNSLKPEDTAVYYCNADAYGTPEFTSYAVRYDYWGQGTQVTVSS”, the “polyreactivity (PSR sort gate)” value is “low polyreactivity”.

“QVQLVESGGGLVQAGGSLRLSCAASGSTYYYYMGWYRQAPGKERELVASISYTGSRTYYADSVKGRFTISRDNAKNTVYLQMNSLKPEDTAVYYCAAARSRARSYYYWGQGTQVTVSS”: the “polyreactivity (PSR sort gate)” value is reported as “high polyreactivity”.

On to “QVQLVESGGGLVQAGGSLRLSCAASGSYTMGWYRQAPGKERELVAAISKSGGSTYYADSVKGRFTISRDNAKNTVYLQMNRLKPEDTAVYYCAAVGWWGTYDYWGQGTQVTVSS”, for which the “polyreactivity (PSR sort gate)” value is on record as “high polyreactivity”.

On to “QVQLVESGGGLVQAGGSLRLSCAASGTFAGNAIGWYRQAPGKERELVAAINSGGSTNYADSVKGRFTISRDNAKNTVYLQMNSLKPEDTAVYYCAADSVWSPVDYDYWGQGSQVTVSS”, for which the “polyreactivity (PSR sort gate)” value is recorded as “low polyreactivity”.

Take “QVQLVESGGGLVQAGGSLRLSCAASGTFGGYAMGWYRQAPGKERELVARIRRNGGSTYYADSVKGRFTISRDTAKNTVYLQMNSLKPEDTAVYYCATDQLSLSSYFRPYDYGYWGQGTQVTVSS”: the “polyreactivity (PSR sort gate)” value was “high polyreactivity”.

With “QVQLVESGGGLVQAGGSLRLSCAASGTFIGYAMGWYRQAPGKERELVAAIDVSGGSTYYADSVKGRFTISRDNAKNTVYLQMNSLKPEDTAVYYCATDRGPEVVLYDYWGHGTQVTVSS”, the “polyreactivity (PSR sort gate)” value was “low polyreactivity”.
